For this assay, the target named is CD46 on target cells (LNCAP-C4-B2 and other prostate cancer cell lines) (UniProt P15529). Put plainly: cell-based or functional assay.

Some results are limits rather than exact numbers.

UniProt P15529, sequence (P15529 35-392 limits assumed): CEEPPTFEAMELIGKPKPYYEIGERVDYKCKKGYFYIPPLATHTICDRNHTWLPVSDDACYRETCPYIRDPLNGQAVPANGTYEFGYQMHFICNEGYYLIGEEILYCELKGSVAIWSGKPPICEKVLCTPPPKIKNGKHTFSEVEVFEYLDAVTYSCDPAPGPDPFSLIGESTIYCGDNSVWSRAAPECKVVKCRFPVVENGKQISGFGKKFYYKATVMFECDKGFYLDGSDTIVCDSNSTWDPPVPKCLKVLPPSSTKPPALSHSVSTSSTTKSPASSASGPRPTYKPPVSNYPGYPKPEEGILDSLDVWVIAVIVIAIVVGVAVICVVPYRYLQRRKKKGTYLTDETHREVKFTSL

For the substance “anti-CD46 CAR (YS5FL-scFv in a second generation lentivirus CAR containing CD28 and CD3zeta), on transduced human T cells”, the killing rate of LNCAP-C4-B2 target cells (real time cytotoxicity assay, impedance, effector:target 10:1) is over 99%.

The record behind these values is patent US20190300620A1.
